Test results published in patent US20210371492A1 (INNOVATIVE CELLULAR THERAPEUTICS, published 2021).

Assays:
[1] = molecular target: T1, GCC-His fusion protein (recombinant extracellular region of GCC with His tag) (human, UniProt P25092 24-430); test: BIAcore (SPR), GCC-His as mobile phase
T1 construct: also called GUC2C-His; recombinant GCC extracellular domain

[2] = molecular target: T1, GCC-His fusion protein (recombinant …); test: ELISA, GUC2C-his coat 3ug/ml, antibody titrated, OD490
[3] = molecular target: T1, GCC-His fusion protein (recombinant …); test: phage-ELISA, Fab phage library screened on GCC-His

Row | Binder | Kd [1] | EC50 (read off the curve) [2] | binding result [3]
1 | R8C11VH/L4G6VK-mIgG2a (antibody, V domains shown, Whole antibody with human variable regions and mouse constant regions (pMABG2a, pMABK); also called R8C11+L4G6) VH: QVQLQQWGAGLLKPSETLSLTCAVFGGSFSGYYWSWIRQPPGKGLEWIGEINHRGNINDNPSLKSRVTISVDTSKNQFALKLSSVTAADTAVYYCARERGYSFGNYDHWGQGTLVTVSS VL: EIVMTQSPATLSVSPGERATLSCRASQTVTRNLAWYQQKPGQAPRLLIYGASTRATGIPARFSGSGSGTEFTLTIGSLQSEDFAVYYCQQYKSWPRSFGQGTNVEIK | 11.8 nM | ~2 nM | 
2 | R8C11VH/L3B4VK-mIgG2a (antibody, V domains shown, Whole antibody with human variable regions and mouse constant regions (pMABG2a, pMABK); also called R8C11+L3B4) VH: QVQLQQWGAGLLKPSETLSLTCAVFGGSFSGYYWSWIRQPPGKGLEWIGEINHRGNINDNPSLKSRVTISVDTSKNQFALKLSSVTAADTAVYYCARERGYSFGNYDHWGQGTLVTVSS VL: EIVMTQSPATLSVSPGERATLSCRASQTVTRNLAWYQQKPGQAPRLLIYGASTRATGIPARFSGSGSGTEFTLTIGSLQSEDFAVYYCQQYKSWPRTFGQGTNVEIK | 11.2 nM |  | 
3 | R7C8+L1E2 (Fab clone from the recombinant human phage antibody library) (Fab, V domains shown) VH: QVQLQQWGAGLLKPSETLSLTCAVFGGSFSGYYWSWIRQPPGKGLEWIGEINHRGNINDNPSLKSRVTISVDTSKNQFALKLSSVTAADTAVYYCARERGYTYGNYEHWGQGTLVTVSS VL: EIVMTQSPATLSVSPGERATLSCRASQTVNRNLAWYQQKPGQAPRLLIYGASTRATGIPARFSGSGSGTEFTLTIGSLQSEDFAVYYCQQYKTWPRTFGQGTNVEIK |  |  | binds
